Molecular target: T1, Human IL-1β, Fc tagged (Acro Biosystems ILA-H525c) (human, UniProt P01584 117-269)
T1 construct: Bought BLI ligand, loaded on anti-human Fc probes; also called BLI ligand; not shown: Fc tag
Test: BLI (Gator), Fc-tagged IL-1β on anti-human Fc probes, conjugate as analyte, 1:1 global fit

- Kd: 0.353 nM
B1: (SEQ ID NO:106)+HyA (850 kDa) conjugate #9, valency 15 (other)
scFv: EIVMTQSPSTLSASVGDRVIITCQASQSIDNWLSWYQQKPGKAPKLLIYRASTLASGVPSRFSGSGSGAEFTLTISSLQPDDFATYYCQNTGGGVSIAFGQGTKLTVLGGGGGSGGGGSGGGGSGGGGSEVQLVESGGGLVQPGGSLRLSCTASGFSLSSAAMAWVRQAPGKGLEWVGIIYDSASTYYASWAKGRFTISRDTSKNTVYLQMNSLRAEDTAVYYCARERAIFSGDFVLWGQGTLVTVSSSPSTPPTPSPSTPPGGC
modifications: C-terminal cysteine thiol of the rigid peptide linker joined through the EMCH organic linker to hyaluronic acid
